# Assay results taken from patent US10196454B2, “Anti-PMEL17 antibodies and immunoconjugates” (GENENTECH, INC., priority 2012, dated 2019).
# T1: mouse PMEL17 (Mus musculus, UniProt Q60696)
# T1 construct: gD tag (N); expressed in transfected cells
# T1 sequence (Q60696 24-626): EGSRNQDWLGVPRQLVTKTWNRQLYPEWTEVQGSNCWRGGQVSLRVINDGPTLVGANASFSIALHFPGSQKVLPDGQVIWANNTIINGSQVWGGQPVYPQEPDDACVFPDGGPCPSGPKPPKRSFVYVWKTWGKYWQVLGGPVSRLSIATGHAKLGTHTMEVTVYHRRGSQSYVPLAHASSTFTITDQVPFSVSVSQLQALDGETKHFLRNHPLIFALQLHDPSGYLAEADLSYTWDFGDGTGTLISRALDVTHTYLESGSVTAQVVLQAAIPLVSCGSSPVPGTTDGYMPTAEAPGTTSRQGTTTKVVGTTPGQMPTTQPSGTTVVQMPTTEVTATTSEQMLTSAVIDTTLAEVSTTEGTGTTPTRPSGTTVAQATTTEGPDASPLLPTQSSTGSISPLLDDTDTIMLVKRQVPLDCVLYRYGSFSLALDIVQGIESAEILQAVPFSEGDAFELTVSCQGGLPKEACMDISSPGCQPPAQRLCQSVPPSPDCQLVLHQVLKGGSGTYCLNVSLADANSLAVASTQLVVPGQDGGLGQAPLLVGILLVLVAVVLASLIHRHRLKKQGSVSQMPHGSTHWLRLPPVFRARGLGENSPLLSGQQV
# B1: 17A9 (antibody, listed as Mus musculus, V domains shown)
# VH: EVQLQQSGPELVKPGASMKISCKSSGYSFTRYTMNWVKQSHGKNLEWIGVINPYNGGTVYNQKFKGKATLTVDKSSSTAYMELLSLTSEDSAVYYCARTDYDGYAMDYWGQGTSVTVSS
# VL: DVQITQSPSYLAASPGETITINCRATKSISKYLAWYQEQPGKTNNLLIYSGSTLQSGIPSRFSGSGSGTDFTLTISSLEPEDFAMYYCQQHNEYPYTFGSGTKLEIK
# What was measured:
# human PMEL17 = test: Monoclonal antibody epitope mapping with PMEL17 deletion mutants (immunoblot, FACS); type: binding; settings: N-terminal deletions by immunoblot, C-terminal deletions in 293 cells by FACS
# Description: All the constructs for epitope mapping were made by PCR amplification of each fragment and subcloning into either pRKtkneo vector with an N-terminal gD tag, or pRKtkneo vector with an N-terminal gD tag and a C-terminal GPI anchor. Transfections were performed using FuGene 6 (Roche Applied Science), and empty vector was used as control. Full-length human PMEL17 was subcloned into pRKtkneo vector with an N-terminal gD tag.
# A signal sequence and a gD epitope tag were fused to the N-terminal sequence of a series of deletion mutants, which were then expressed in mammalian cells and the lysates analyzed by immuoblotting for reactivity with 17A9 or 77E6. The N-terminal deletions tested included Δ100, Δ255, Δ292, Δ315, Δ444, Δ515, and Δ567.
# In addition, C-terminal deletions with an N-terminal gD tag and a C-terminal GPI anchor were transiently transfected into 293 cells and analyzed for antibody binding by FACS. The C-terminal deletions tested included PMEL1725-125, PMEL1725-105, PMEL1725-85, PMEL1725-65, and PMEL1725-45. Finally, a PMEL17 fragment comprising the region from amino acid 515 through the transmembrane domain, but lacking the cytoplasmic region (“Δ515-C”) and a PMEL17 fragment comprising just the cytoplasmic domain with an N-terminal gD tag and a C-terminal GPI anchor were analyzed by immuoblotting for reactivity with 77E6.
# normal human melanocytes = test: Toxicity of anti-PMEL17 ADC in normal melanocytes (CellTiter-GloII, five days); type: cell-based; settings: versus SK-MEL-5 and SK-MEL-23, five days
# Description: Finally, SK-MEL-5 and SK-MEL-23 melanoma cells, or normal human melanocytes, were incubated with serial dilutions of the 17A9 ADC and five days later cell numbers were determined using CellTiter-GloII.
# 1300mel melanoma cells = test: Internalization of anti-PMEL17 antibody, co-staining with lysosomal marker LAMP1; type: cell-based
# mouse PMEL17 = target: T1, mouse PMEL17; test: Species cross-reactivity by FACS, 293S cells stably transfected with gD tagged PMEL17; type: binding; settings: 10 μg/ml antibody
# Description: Antibody 17A9 was tested to determine if it cross-reacts with PMEL17 from species other than human. […] All of the sequences include the signal sequence except for the cynomolgus monkey PMEL17. Residues that are identical among all four species are indicated by asterisks (*). In the region where the rat sequence has a deletion, residues that are identical among the remaining three species are indicated by a plus (+). Binding to each species of PMEL17 was determined by FACS analysis using 293S cells stably transfected with an N-terminal gD tagged PMEL17 (human, cynomolgus monkey, rat, or mouse PMEL17); stained with 10 μg/ml 17A9 antibody; and detected with R-Phycoerythrin conjugated goat anti-mouse antibody.
# 928mel cells = test: Live cell staining and FACS with directly labeled antibodies; type: cell-based
# Source text: The predominance of the N-terminal epitope at the cell surface relative to the cytoplasmic epitope is consistent with stronger FACS signals observed with 17A9 over 77E6. Nevertheless, it appears that some portion of the cytoplasmic region is present at the cell surface to account for the FACS signals observed with 77E6. To address this, live cells were reacted with the 77E6 and 17A9 antibodies that were directly labeled with Alexa Fluors 555 and 488, respectively. […] The binding of the individual antibodies was unaffected by the presence of the other antibody. […] Further, although 17A9 stained all cells uniformly and consistently, 77E6 staining was variable from cell to cell and the overall degree of staining varied across preparations. […] Overall, the uniform and intense reactivity of 17A9 on melanoma cells makes this antibody a good candidate for drug conjugation.
molecule,measurement,setting,value
B1,binding to PMEL17 deletion mutants,human PMEL17,bound only to PMEL1725-125
same,binding to PMEL17 deletion mutants,human PMEL17; listed as 17A6,bound only to full-length PMEL17
same,IC50 on normal melanocytes relative to melanoma cell lines,normal human melanocytes,~100 fold
same,overlap of antibody and LAMP1 staining within the cells,"1300mel melanoma cells; 2 μg/ml, 2 hours or 20 hours, 37° C.",considerable overlap
same,uptake into additional PMEL17+ melanoma cell lines,"1300mel melanoma cells; 526mel, SK-MEL-5, UACC257",Rapid uptake
same,binding to mouse PMEL17 by FACS,mouse PMEL17,bind
same,binding in the presence of the other labeled antibody (competition),"928mel cells; 77E6 and 17A9 alone or both together, FACS",unaffected
same,cell surface staining of live-labeled cells,928mel cells; Alexa Fluor labeled antibodies,uniform cell surface staining
